The target in experiment [1] is T1, Full-length Spt4/5 heterodimer (DSIF) (S. pombe, UniProt O13936 1-990; Q9P7K8 1-105).
T1 construct: Spt5 of S. pombe, full length; Spt4 of S. pombe, full length; Co-expressed heterodimer, used as one preformed complex in all in vitro experiments; Only the Kow5 domain of Spt5 is seen in the cryo-EM map; also called Spt5-Spt4; Spt5
T1 sequence (looked up) 1: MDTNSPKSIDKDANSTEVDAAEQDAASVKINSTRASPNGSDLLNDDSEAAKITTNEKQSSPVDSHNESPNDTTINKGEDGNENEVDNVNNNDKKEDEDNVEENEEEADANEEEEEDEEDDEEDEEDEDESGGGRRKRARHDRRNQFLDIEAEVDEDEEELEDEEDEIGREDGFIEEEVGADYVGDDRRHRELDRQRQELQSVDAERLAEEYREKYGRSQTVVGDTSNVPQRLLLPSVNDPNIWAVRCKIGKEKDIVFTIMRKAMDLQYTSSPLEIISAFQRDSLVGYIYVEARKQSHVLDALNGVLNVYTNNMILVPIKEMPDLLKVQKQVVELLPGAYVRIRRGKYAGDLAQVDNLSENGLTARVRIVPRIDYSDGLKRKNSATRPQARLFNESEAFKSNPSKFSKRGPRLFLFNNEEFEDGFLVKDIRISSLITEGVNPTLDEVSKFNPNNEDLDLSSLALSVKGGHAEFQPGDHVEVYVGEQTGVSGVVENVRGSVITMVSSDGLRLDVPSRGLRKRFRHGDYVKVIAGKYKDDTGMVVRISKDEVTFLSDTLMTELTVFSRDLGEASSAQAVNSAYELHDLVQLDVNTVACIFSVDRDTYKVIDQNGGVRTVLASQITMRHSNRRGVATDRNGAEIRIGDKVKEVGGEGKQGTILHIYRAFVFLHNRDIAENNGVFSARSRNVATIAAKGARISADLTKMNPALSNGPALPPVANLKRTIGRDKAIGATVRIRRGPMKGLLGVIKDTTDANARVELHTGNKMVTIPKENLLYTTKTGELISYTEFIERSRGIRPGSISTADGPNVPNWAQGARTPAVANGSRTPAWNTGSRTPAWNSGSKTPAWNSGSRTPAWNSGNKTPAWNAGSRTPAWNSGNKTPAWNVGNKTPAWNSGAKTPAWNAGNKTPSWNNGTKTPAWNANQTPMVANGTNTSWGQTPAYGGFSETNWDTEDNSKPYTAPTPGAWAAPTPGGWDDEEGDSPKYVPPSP
T1 sequence (looked up) 2: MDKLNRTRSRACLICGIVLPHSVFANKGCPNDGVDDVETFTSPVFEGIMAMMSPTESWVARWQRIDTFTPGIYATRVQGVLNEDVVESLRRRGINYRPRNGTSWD
Put plainly: pull-down; Rai1 immobilised on beads and challenged with Xrn2 or Xrn2/Spt4/5; no Pol II. The settings on record: both partners purified.

The target of experiment [2] is C-terminally truncated Xrn2 (residues 1–885), WT (S. pombe).

B1: full-length Rai1 Strep-tagged (natural protein, S. pombe, UniProt O13836 1-352, looked up)
chain: MLREFSFYDVPPAHVPPVSEPLEIACYSLSRDRELLLDDSKLSYYYPPPLFSDLNTGFPNRFHPPKSDPDPISIVKDVLMTKGIQMNSSFLTWRGLITKIMCAPLDPRNHWETYLVMDPTSGIIMMEERTRSETSYANQDRMCYWGYKFEAISTLPEIWDACSRDQIEQRDNQDVVPDEQYCSIVKINIGKSKLILAGEVDCIWDKKPCSAKESDVHSDDGTIEEDASNAENPNLHYVELKTSKKYPLENYGMRKKLLKYWAQSFLLGIGRIIIGFRDDNGILIEMKELFTHQIPKMLRPYFKPNDWTPNRLLVVLEHALEWIKQTVKQHPPSTEFTLSYTGGSKLVLRQII
notes: source: Rosetta E. coli, purified (StrepTrap HP, Superdex 200)
Regarding B1, in experiment [1], the binding result was “binds”.

B2: Kow5-sCTR (Spt5 region 720 to 874 aa, N-terminal His-tag) (domain or fragment)
chain: LKRTIGRDKAIGATVRIRRGPMKGLLGVIKDTTDANARVELHTGNKMVTIPKENLLYTTKTGELISYTEFIERSRGIRPGSISTADGPNVPNWAQGARTPAVANGSRTPAWNTGSRTPAWNSGSKTPAWNSGSRTPAWNSGNKTPAWNAGSRTPA
For the molecule B2, the half-life of normalised anisotropy (a proxy for substrate half-life) in the degradation of P-RNA-FAM by Xrn2, fluorescence anisotropy; decrease in the presence of Kow5-sCTR in experiment [2] stood at 3 fold.

The values above are taken from PMC11695829, “DSIF factor Spt5 coordinates transcription, maturation and exoribonucleolysis of RNA polymerase II transcripts” (Nature Communications, 2025).
